Assay results reported in paper PMC2749713.

Legend:
[1] = molecular target: AB’C PP2A holoenzyme with GST-tagged A subunit (GST-A, B’ and C subunits) (human) (UniProt P30153); experiment: pull-down
[2] = molecular target: Sgo1(51-96) peptide (human) (UniProt Q5FBB7); experiment: crystal structure

AB’C PP2A holoenzyme with GST-tagged A subunit (GST-A, B’ and C subunits) (human), sequence (P30153 2-589, chain 1 of 3): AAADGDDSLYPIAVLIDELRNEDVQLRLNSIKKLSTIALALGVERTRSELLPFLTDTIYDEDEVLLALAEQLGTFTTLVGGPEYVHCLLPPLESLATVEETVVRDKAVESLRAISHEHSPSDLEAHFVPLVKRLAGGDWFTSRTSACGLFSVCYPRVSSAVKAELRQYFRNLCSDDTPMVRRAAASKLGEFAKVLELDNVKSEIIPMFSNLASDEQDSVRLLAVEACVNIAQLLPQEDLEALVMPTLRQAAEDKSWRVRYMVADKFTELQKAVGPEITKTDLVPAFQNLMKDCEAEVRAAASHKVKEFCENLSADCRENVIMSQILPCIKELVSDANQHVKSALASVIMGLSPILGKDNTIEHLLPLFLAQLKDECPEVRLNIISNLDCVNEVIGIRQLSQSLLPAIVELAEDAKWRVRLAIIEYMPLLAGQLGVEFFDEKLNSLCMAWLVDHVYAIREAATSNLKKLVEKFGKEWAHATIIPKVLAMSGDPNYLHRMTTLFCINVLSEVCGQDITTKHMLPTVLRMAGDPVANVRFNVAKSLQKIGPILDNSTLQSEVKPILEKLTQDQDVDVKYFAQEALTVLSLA
AB’C PP2A holoenzyme with GST-tagged A subunit (GST-A, B’ and C subunits) (human), sequence (Q13362 whole entry, chain 2 of 3, further chain): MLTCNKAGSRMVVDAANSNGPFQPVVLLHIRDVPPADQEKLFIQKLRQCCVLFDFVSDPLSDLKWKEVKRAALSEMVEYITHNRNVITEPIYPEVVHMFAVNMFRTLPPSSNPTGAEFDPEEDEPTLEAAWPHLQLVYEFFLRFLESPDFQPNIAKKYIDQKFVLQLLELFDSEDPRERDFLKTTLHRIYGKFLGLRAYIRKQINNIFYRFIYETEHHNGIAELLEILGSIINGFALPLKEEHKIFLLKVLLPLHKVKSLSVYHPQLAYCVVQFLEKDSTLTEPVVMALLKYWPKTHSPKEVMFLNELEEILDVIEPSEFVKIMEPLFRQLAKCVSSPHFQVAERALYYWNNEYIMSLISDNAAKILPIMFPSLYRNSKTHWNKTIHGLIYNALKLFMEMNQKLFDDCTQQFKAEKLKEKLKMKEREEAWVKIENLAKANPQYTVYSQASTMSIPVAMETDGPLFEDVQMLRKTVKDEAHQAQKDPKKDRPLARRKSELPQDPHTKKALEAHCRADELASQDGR
AB’C PP2A holoenzyme with GST-tagged A subunit (GST-A, B’ and C subunits) (human), sequence (P67775 whole entry, chain 3 of 3, further chain): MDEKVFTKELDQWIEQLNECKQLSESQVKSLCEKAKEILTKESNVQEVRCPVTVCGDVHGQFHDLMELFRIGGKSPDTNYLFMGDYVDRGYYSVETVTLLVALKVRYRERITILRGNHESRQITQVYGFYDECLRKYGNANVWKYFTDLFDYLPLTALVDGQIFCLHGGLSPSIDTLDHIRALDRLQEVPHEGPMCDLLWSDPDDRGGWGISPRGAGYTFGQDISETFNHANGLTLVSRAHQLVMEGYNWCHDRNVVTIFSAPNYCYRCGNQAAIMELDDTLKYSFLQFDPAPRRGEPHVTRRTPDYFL

| stoichiometry N (Sgo2 per PP2A) [1] | stoichiometry N [2] | Substance |
| --- | --- | --- |
| 2 | – | MBP-Sgo2(45-117) (from UniProt Q7TSY8 45-117) (domain or fragment) |
| – | 2 | Sgo1(51-96) peptide (from UniProt Q5FBB7 51-96) |
